Among the data in publication doi:10.1101/2024.04.02.587845 are Kd values, retold here.

For assay [1], the target named is GST-YFP-6His-PANT^R20A (Arabidopsis). Put plainly: MST.
Assay [2] addresses GST-YFP-6His-PANT^WT (PANT domain of Arabidopsis SRFR1) (Arabidopsis). Put plainly: MST.

Take “synthetic P1 peptide (P1 segment of IDR1 of SRFR1)”: the Kd in assay [1] was found to be 956 µM; in assay [2] it was 395 µM.

Usually Kd stands for the constant that tells how readily two partners part at equilibrium.
